Reference: article PMC10715038 (Microbiology Spectrum, 2023)

Target: T1, SARS-CoV-2 WHU01 Spike RBD, monomeric (SARS-CoV-2, UniProt P0DTC2)
T1 construct: not shown: Fc (human IgG1), C-terminal, cleaved
Assay: SPR
Conditions: both partners purified

B1: Dog ACE2-huFc (soluble dog ACE2 ectodomain, human IgG1 Fc fusion) (Fc fusion)
chain: QSTEDLVKTFLEKFNYEAEELSYQSSLASWNYNINITDENVQKMNNAGAKWSAFYEEQSKLAKTYPLEEIQDSTVKRQLRALQHSGSSVLSADKNQRLNTILNSMSTIYSTGKACNPSNPQECLLLEPGLDDIMENSKDYNERLWAWEGWRSEVGKQLRPLYEEYVALKNEMARANNYEDYGDYWRGDYEEEWENGYNYSRNQLIDDVEHTFTQIMPLYQHLHAYVRTKLMDTYPSYISPTGCLPAHLLGDMWGRFWTNLYPLTVPFGQKPNIDVTNAMVNQSWDARKIFKEAEKFFVSVGLPNMTQEFWENSMLTEPSDSRKVVCHPTAWDLGKGDFRIKMCTKVTMDDFLTAHHEMGHIQYDMAYAAQPFLLRNGANEGFHEAVGEIMSLSAATPNHLKNIGLLPPSFFEDSETEINFLLKQALTIVGTLPFTYMLEKWRWMVFKGEIPKDQWMKTWWEMKRNIVGVVEPVPHDETYCDPASLFHVANDYSFIRYYTRTIYQFQFQEALCQIAKHEGPLHKCDISNSSEAGQKLLEMLKLGKSKPWTYALEIVVGAKNMDVRPLLNYFEPLFTWLKEQNRNSFVGWNTDWSPYADQSIKVRISLKSALGEKAYEWNNNEMYLFRSSIAYAMRQYFSEVKNQTIPFVEDNVWVSDLKPRISFNFFVTSPGNVSDIIPRTEVEEAIRMYRSRINDVFRLDDNSLEFLGIQPTLGPPYEPPVTI
notes: source: 293F cells, transfected, purified from supernatant (Protein A Sepharose)
  Kd: 275 nM
  koff: 0.0176 s⁻¹
  kon: 60000 M⁻¹ s⁻¹
